Experimental data: publication PMC4267838

Biological target: histone deacetylase 5 (rat (endogenous in Sprague-Dawley rat cardiac myocytes))
Assay: co-IP; HDAC5 precipitated from equal amounts of cardiac myocyte nuclear extracts, 14-3-3 detected by western blotting; cells treated with vehicle, ET1 (0.1 µM), PPAR ligands (troglitazone 1 µM, fenofibrate 10 µM, GW501516 1 µM), with or without shRNA knockdown of DGKζ

14-3-3 chaperone proteins (from UniProt P63102 1-245) (natural protein)
percent of normalized 14-3-3 in HDAC5 precipitates of ET1-treated cells vs. vehicle-treated control (% vs. control): 138
